Measurements taken from the DeepSol protein solubility set.

Experiment: soluble on expression in E. coli; label from the status in PepcDB or PDB records

Row | Sequence | soluble on expression in E. coli
1 | EKQNEIQKKKARRHQLAMDYPEFISTFTLYLGAGMPARRAWFQIASVYRQQENTRYVYEEMVYTMREMQRGTPESECYEHFGMRCGLPVYRKFAVMLSQNLRKGTKGLAELLQREAAGAFEERKAAARKLGEETSTR | not soluble
2 | MEIKTTTTLHRVVEETTKPLGATLVVETDISRKDVNGLARGHLVDGIPLCTPSFYADIAMQVGQYSMQRLRAGHPGAGAIDGLVDVSDMVVDKALVPHGKGPQLLRTTLTMEWPPKAAATTRSAKVKFATYFADGKLDTEHASCTVRFTSDAQLKSLRRSVSEYKTHIRQLHDGHAKGQFMRYNRKTGYKLMSSMARFNPDYMLLDYLVLNEAENEAASGVDFSLGSSEGTFAAHPAHVDAITQVAGFAMNANDNVDIEKQVYVNHGWDSFQIYQPLDNSKSYQVYTKMGQAKENDLVHGDVVVLDGEQIVAFFRGLTLRSVPRGALRVVLQTTVKKADRQLGFKTMPSPPPPTTTM | soluble
3 | MGSSHHHHHHGGTGENLYFQGGSGMAYRHQATDQFHRFLHNPHVVQPDGVDGLPRVKGDQQQWLNTEQWHGYSDTYLQRHMQYPATVELNNPAVNARHDLLYECLGLVYELYGGLAEDLQELHDDPLHPHFHRRIARIKRDRERIATELDKRYAKLHPTVKTVYDAFLVRRYYHLADWIEHVERKRERLINDLSPDVMEKTMRMRGIAEQYLRHLRALEHALYEDPLMGLLGGDRGTNVLDQYTPGELAMLRQKAAYFRNMRRFGANQLDADMHTH | soluble
4 | MDSINTRIAEELSALPSGRVQPQQVAAAVALLDEGSTVPFIARYRKEVTGSLDDTQLRMLEERLRYLRELEERRGAILASIEEQGKLTPELARDIKLADTKTRLEDLYLPYKQKRRTKGQIALEAGLGALADALFDDPTLVPESEAARFVDAEKGFADVKAVLEGAKYILMERFAEDATLLDKLRVFMKNEATLTARVVPGKEQEGAKFSDYFEHDEPLKSAPSHRALAIFRGRNEGVLSASLKVGEEAPGTLHPCEVMIAERFGLSNQGRAADKWLAEVVRWTWKVKLYTHLETDLFGELRDGAEDEAISVFARNLHDLLLAAPAGPRATLGLDPGLRTGVKVAVVDATGKLLDTATVYPHAPKNQWDQTLAVLAALCAKHQVELIAIGNGTASRETDKLAGELIKKYPGMKLTKIMVSEAGASVYSASELAAKEFPELDVSLRGAVSIARRLQDPLAELVKIEPKSIGVGQYQHDVSQLKLARSLDAVVEDCVNAVGVDVNTASAALLARISGLNSTLAQNIVAHRDANGAFRTRDELKKVSRLGEKTFEQAAGFLRVMNGDNPLDASAVHPETYPLVQRIAADTERDIRSLIGDSAFLKRLDPKKFTDETFGLPTVTDILKELDKPGRDPRPEFKTAEFQEGVESLKDLKPGMVLEGVVTNVTNFGAFVDIGVHQDGLVHISALSEKFVKDPYEVVKAGDIVKVKVMEVDIPRNRVGLSMRMSDTPGEKVEGQRGGRPTGSGQPRQERGAPRGQSAPPANNAMAALFANAKQLKKKHHHHHH | soluble
5 | MEVYMKKLINDKNNIVEEVVQGMIKAFPNKVSRVENEPIIIRKNKKVNKVALISGGGSGHEPAHAGYVGYGMLDAAVCGEIFTSPGADKVYSAIKAVDAGKGVLLIIKNYSGDVMNFEMAGEMAQAEGITVKQVVVDDDIAVENSTYTVGRRGIAGTIFVHKILGAAAEKGYDLDKLVELGNKVVKNLKTMGMSLKPCTVFTTGKESFEIADDEVEIGLGIHGEPGTHREKMTTANEFTKKLFEKIYAESNVQNGDRFAVLVNGLGETTLIELFIINNHLQDLLKDKRIEVAKTLVGNYMTSLDMGGFSISLLKLDKEMEELLNAEEDTIAFLEHHHHHH | soluble
6 | MGSSHHHHHHSSGLVPRGSHMKIAFVIRKDCSRCARIAESIIDLLPKDWEIIYDHEAAKFLNSKGLDISQISADVIITIGGDGTVLRTLQMAKGPVLGINMGGLGFLTELEVDEVGSAIFKLIKGQYRITESMKLKVEINGDRVEDCTNEAVVHTERIARIRQFKIYIDGHFLSTMKSDGIIVATPIGSSSYSSSAGGPLLLPTLKGMVISYLAPYSSRLKPVVVTSDSTVEIKIAGRDQECILILDGQREYTVRSGDTVRISRSENSARFLSFRESVYDRIRDKVIKHVVN | soluble
7 | MATAADSVYSIESPKAAKSLMLDVVHAGKRLVAVGDRGHILYSDDQGQTWVQAKVPTRQLLTAVYFVDDKRGWAVGHDAQVLASSDGGATWTRQFQDLKREAPLLDVWFKDTQTGYAVGAYGALLETSDGGQHWEDVSDRLDNEDQFHLNAIAQVKDSGLFIVGEQGSMFRSADDGQTWERLEGPYEGSLFGVIGTGQPATLLVYGLRGNLYRSTDFGSTWEQVELEHHHHHH | soluble
8 | SLAGPKESRDLTLEQFQVNFLDQYTIKHAFINGVNIYRCYPGAPPNNVQMVMQRSHGTEVPGIMVNLEGQQPTVVPLDASIIGAKKLTPTTTRPLHNVRVLRVNAVMRFHPLCRARFVGPNDISFGIRSATSQSIQEHIQELTDLMKKTQQADEQAMGALYSRSSALVSKLKMSGATSNVAFLEVPQTETRWGNPWTWYRAYLPTPLGDGVETWMTPIGDSGYYITVDFNFTESERQKNTENYQRARQLMDSVLQSVVIQKR | soluble
9 | MGHHHHHHSHMSAVGTATPYLHHPGDSHSGRVSFLGAQLPPEVAAMARLLGDLDRSTFRKLLKFVVSSLQGEDCRDCCSVLGSAPTCRRAAGCLLAGMHTLLQQALRLPPTSLKPDTFRDPAPGALHPPRPGRGLGQRGIWEPAALLDSVAQQQGAWLPHVADFRWRVDVAISTSALARSLQPSVLMQLKLSDGSAYRFEVPTAKFQELRYSVALVLKEMADLEKRCERRLQD | soluble
10 | MGSDKIHHHHHHMELNLQTAELALREASESNPGAWADHSRFVAEACKNIASHCKDLSSEQAYIFGLLHDIGRYAGVSSERHLIDGYRYCMERGWEKAAQICISHAFMIQDIATSIGVFDVSDEDYLFMKEFVANAVYDDYDRLVQLCDALAMPSGFCLLEKRFVDVTMRYGVHPATIDRWKKILEIKEQFENQIGCSIYSLLPGIVENSFR | not soluble
11 | MVDIIIAEHAGFCFGVKRAVKLAEESLKESQGKVYTLGPIIHNPQEVNRLKNLGVFPSQGEEFKEGDTVIIRSHGIPPEKEEALRKKGLKVIDATCPYVKAVHEAVCQLTREGYFVVLVGEKNHPEVIGTLGYLRACNGKGIVVETLEDIGEALKHERVGIVAQTTQNEEFFKEVVGEIALWVKEVKVINTICNATSLRQESVKKLAPEVDVMIIIGGKNSGNTRRLYYISKELNPNTYHIETAEELQPEWFRGVKRVGISAGASTPDWIIEQVKSRIQEICEGQLVSSRSHHHHHH | soluble
12 | MPVKKVEKNILVLHGADKMFELVDKVEDYPHFLPWYSKTEVIGRSGNELKARLFMDYMHVRQSFATHNRNIPGREIRMELLEGPFKTLRGTWKFIDLGDDMCKIEFNLEYDFSNAVLSALISPVFNHLSTTLVEAFVKEADRRYA | not soluble
13 | MGSDKIHHHHHHVTGSDTQLYPPMSTYLENHNIRYFNSFSAENLKSATPDLVVVGNAISRGNPDLEYALDQHMELISMPQLVRRELIGRHTSIVVAGTHGKTTTTSLVAWLLEAGGLLPGFLIGGIPENFGDGCRPSGLSEPGFFVTEGDEYDSAFFDKRSKFLHYRPDIAIINNVEFDHADIFDSLDDIKKSFRLLVNLVPSNGLLIVNADDPNSMEVSAKAFCRVETFGLNGNAEWTAADIATDTDGTSFTVVRDSEAIGRVKVPLFGNYNVMNALAATAAAIRAGVSFESVTRGLCSFKRPKRRMELVGEYAGGITLIEDFAHHPTAIRLTLGAIAEHYPGRRIIACFEPRSNTTSRNIFQHELSECFGDAAIVVLGKVNRPERYAPEERLDAALLCRELKANGKRVFAAGSENYPEDIVRFIEAEQQPGDVVVLLSNGSFSGLKEMLAESFQKNS | not soluble
14 | SYELTQPPSVSVAPGKTARITCGGNNIGSKSVHWYQQKPGQAPVLVVYDDSDRPSGIPERFSGSNSGNTATLTISRVEAGDEADYYCQVWDSSSDYVFGTGTKVTVLGQPKANPTVTLFPPSSEEFQANKATLVCLISDFYPGAVTVAWKADGSPVKAGVETTKPSKQSNNKYAASSYLSLTPEQWKSHRSYSCQVTHEGSTVEKTVAPTECS | soluble
